13 molecules from publication PMC9237840 can be followed below.

Common to all, as to experiment: EMSA
In general terms: Mobility shift assays separate free from complexed probe on a gel.

In data set [1] the target is T1, GST-Rib-PSQ DNA-binding domain (Drosophila melanogaster, UniProt Q7KF43 363-414).
T1 sequence: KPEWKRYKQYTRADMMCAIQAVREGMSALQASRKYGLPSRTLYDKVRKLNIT

Data set [2] addresses T2, Ribbon (Rib) full-length (Drosophila melanogaster, UniProt Q7KF43 1-661).
T2 sequence: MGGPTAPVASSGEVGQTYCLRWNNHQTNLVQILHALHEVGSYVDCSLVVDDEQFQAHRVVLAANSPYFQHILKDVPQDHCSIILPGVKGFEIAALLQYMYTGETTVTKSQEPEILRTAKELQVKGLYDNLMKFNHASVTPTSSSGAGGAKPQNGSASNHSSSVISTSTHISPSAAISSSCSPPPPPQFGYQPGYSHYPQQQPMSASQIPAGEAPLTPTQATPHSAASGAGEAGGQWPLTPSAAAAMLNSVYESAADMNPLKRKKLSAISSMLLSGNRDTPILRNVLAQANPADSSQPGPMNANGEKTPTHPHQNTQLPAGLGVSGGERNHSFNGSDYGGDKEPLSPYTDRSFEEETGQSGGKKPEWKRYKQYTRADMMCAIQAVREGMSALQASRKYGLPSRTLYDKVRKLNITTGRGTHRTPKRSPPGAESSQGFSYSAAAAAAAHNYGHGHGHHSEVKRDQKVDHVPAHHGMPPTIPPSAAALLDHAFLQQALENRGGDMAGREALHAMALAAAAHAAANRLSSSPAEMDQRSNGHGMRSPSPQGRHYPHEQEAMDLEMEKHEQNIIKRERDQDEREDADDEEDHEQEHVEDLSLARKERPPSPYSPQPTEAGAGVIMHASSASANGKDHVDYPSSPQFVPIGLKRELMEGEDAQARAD

The target in data set [3] is T3, CrebA full-length (Drosophila melanogaster, UniProt P29747 1-516).
T3 sequence: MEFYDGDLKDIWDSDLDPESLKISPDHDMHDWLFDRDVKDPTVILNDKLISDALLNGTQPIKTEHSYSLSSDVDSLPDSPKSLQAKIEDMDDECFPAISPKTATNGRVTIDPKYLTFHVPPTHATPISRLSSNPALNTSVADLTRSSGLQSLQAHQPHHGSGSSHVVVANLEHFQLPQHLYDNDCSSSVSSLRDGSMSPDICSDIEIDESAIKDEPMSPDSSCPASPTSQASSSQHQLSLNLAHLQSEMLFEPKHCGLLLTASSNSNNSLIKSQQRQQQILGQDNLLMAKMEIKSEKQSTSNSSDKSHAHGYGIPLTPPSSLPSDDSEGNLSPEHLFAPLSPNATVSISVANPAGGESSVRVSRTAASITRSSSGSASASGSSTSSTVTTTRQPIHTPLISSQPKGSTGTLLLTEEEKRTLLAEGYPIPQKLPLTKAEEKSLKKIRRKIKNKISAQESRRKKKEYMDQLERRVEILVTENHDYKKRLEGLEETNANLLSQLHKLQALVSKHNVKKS

B1: RpS27A (dsDNA)
DNA 1: TTCAACTTCCTGTCACGCTGTGTGTGTGTTCTTTCTTTCCTTTGATTCTG
DNA 2: CAGAATCAAAGGAAAGAAAGAACACACACACAGCGTGACAGGAAGTTGAA
Regarding B1, the binding result in data set [1] and in data set [2] was “binds” each time.

B2: RpL11 (dsDNA)
DNA 1: CGCGGCCACACTATCCTTTCCTTCTTTTCTTACAAGTTTCCGGTGAGTGC
DNA 2: GCACTCACCGGAAACTTGTAAGAAAAGAAGGAAAGGATAGTGTGGCCGCG
Turning to B2, the binding result in data set [1] and in data set [2] was “binds” in each case.

B3: RpS17* (T to G in TC-rich motif) (dsDNA)
DNA 1: ACACAACCACCCTGGTCACACGGCATCCGGCGGGGGCGGGCGGGGCCGGC
DNA 2: GCCGGCCCCGCCCGCCCCCGCCGGATGCCGTGTGACCAGGGTGGTTGTGT
For the molecule B3, the binding result in data set [1] and in data set [2] was “binds” each time.

B4: P24.1 (dsDNA)
DNA 1: CCGATAGCATATACGTGGGTCCGCAGTGC
DNA 2: GCACTGCGGACCCACGTATATGCTATCGG
In the case of B4, the binding result in data set [3] is recorded as “binds”.

B5: RpL7A (dsDNA)
DNA 1: AACTGCCACTTCCTTTCTTTTTCGTTCCACGTTTCCGGTGAGTGCATGTG
DNA 2: CACATGCACTCACCGGAAACGTGGAACGAAAAAGAAAGGAAGTGGCAGTT
In the case of B5, the binding result in data set [1] and in data set [2] was “binds” throughout.

B6: RpS10b (dsDNA)
DNA 1: ATCCCTTCCGTTTCCCTTTCTTTTCGTCTTCACGTTTCCGGTGAGTGCGT
DNA 2: ACGCACTCACCGGAAACGTGAAGACGAAAAGAAAGGGAAACGGAAGGGAT
In the case of B6, the binding result in data set [1] and in data set [2] was “binds” in each case.

B7: RpL6 (dsDNA)
DNA 1: CCCTGGTCACACCGCTCTAGACATAACCTTCCTTTTCCAATAATTTTTGT
DNA 2: ACAAAAATTATTGGAAAAGGAAGGTTATGTCTAGAGCGGTGTGACCAGGG
Turning to B7, the binding result in data set [1] and in data set [2] was “binds” throughout.

B8: RpS17 (dsDNA)
DNA 1: ACACAACCACCCTGGTCACACGGCATCCTTCTTTTTCTTTCGTTTCCGGC
DNA 2: GCCGGAAACGAAAGAAAAAGAAGGATGCCGTGTGACCAGGGTGGTTGTGT
For the molecule B8, the binding result in data set [1] and in data set [2] was “binds” throughout.

B9: RpL19 (dsDNA)
DNA 1: TTCCGGCTGTCAAATTTTTCTTTCTTTCCTAGCCACGACGAGGTCGACAG
DNA 2: CTGTCGACCTCGTCGTGGCTAGGAAAGAAAGAAAAATTTGACAGCCGGAA
As for B9, the binding result in data set [1] and in data set [2] was “binds” in each case.

B10: TSN-2 (dsDNA)
DNA 1: ATCTGATTTGGTGACGTTGGCACCCTGCA
DNA 2: TGCAGGGTGCCAACGTCACCAAATCAGAT
Consider B10, for which the binding result in data set [3] was “binds”.

B11: RpS3 (dsDNA)
DNA 1: AACGTGTCTCGCGCGGGCACACTGGCCTCTTTCTTTTCTGCGCACCACGT
DNA 2: ACGTGGTGCGCAGAAAAGAAAGAGGCCAGTGTGCCCGCGCGAGACACGTT
Regarding B11, the binding result in data set [1] and in data set [2] was “binds” in each case.

B12: RpS18 (dsDNA)
DNA 1: GGCAGCCACATTAATTCGGCCTTCTTTTCTTTTCCCGTTTCCGGTGAGTG
DNA 2: CACTCACCGGAAACGGGAAAAGAAAAGAAGGCCGAATTAATGTGGCTGCC
For B12, the binding result in data set [1] and in data set [2] was “binds” in each case.

B13: RpL17 (dsDNA)
DNA 1: ACTGCCATTTCCTTTCTTTTTCGTTCCACGTTTCCGGTGAGTGCATGTGC
DNA 2: GCACATGCACTCACCGGAAACGTGGAACGAAAAAGAAAGGAAATGGCAGT
Take B13: the binding result in data set [1] and in data set [2] was “binds” each time.
